Data reported in paper PMC4414177 (2015).
Blank lines part the entries; values can stand above or below the binder they belong to.

Biological target: GSTP1-1 (Homo sapiens, UniProt P09211)
Experiment: ELISA

B1: JNK1α2 (protein)
chain: MSRSKRDNNFYSVEIGDSTFTVLKRYQNLKPIGSGAQGIVCAAYDAILERNVAIKKLSRPFQNQTHAKRAYRELVLMKCVNHKNIIGLLNVFTPQKSLEEFQDVYIVMELMDANLCQVIQMELDHERMSYLLYQMLCGIKHLHSAGIIHRDLKPSNIVVKSDCTLKILDFGLARTAGTSFMMTPYVVTRYYRAPEVILGMGYKENVDLWSVGCIMGEMVCHKILFPGRDYIDQWNKVIEQLGTPCPEFMKKLQPTVRTYVENRPKYAGYSFEKLFPDVLFPADSEHNKLKASQARDLLSKMLVIDASKRISVDEALQHPYINVWYDPSEAEAPPPKIPDKQLDEREHTIEEWKELIYKEVMDLEERTKNGVIRGQPSPLGAAVINGSQHPSSSSSVNDVSSMSTDPTLASDTDSSLEAAAGPLGCCR
modifications: 1 mM GSH
Kd: 2200 nM

B2: JNK1α2 (protein)
chain: B1 chain
modifications: 1 mM GSH+8 μM MC3181
Kd: > 5000 nM

B3: JNK1α2 (protein)
chain: B1 chain
Kd: 420 nM

B4: TRAF2 CTD (protein)
chain: DQDKIEALSSKVQQLERSIGLKDLAMADLEQKVLEMEASTYDGVFIWKISDFARKRQEAVAGRIPAIFSPAFYTSRYGYKMCLRIYLNGDGTGRGTHLSLFFVVMKGPNDALLRWPFNQKVTLMLLDQNNREHVIDAFRPDVTSSSFQRPVNDMNIASGCPLFCPVSKMEAKNSYVRDDAIFIKAIVDLTGL
modifications: 1 mM GSH+8 μM MC3181
Kd: > 10000 nM

Now from value to binder:

Kd: 280 nM
B5: TRAF2 CTD (protein)
chain: B4 chain

Kd: 3000 nM
B6: TRAF2 CTD (protein)
chain: B4 chain
modifications: 1 mM GSH
